Patent publication US20210238260

Chain of Factor X, P00742 (P00742 whole entry, looked up): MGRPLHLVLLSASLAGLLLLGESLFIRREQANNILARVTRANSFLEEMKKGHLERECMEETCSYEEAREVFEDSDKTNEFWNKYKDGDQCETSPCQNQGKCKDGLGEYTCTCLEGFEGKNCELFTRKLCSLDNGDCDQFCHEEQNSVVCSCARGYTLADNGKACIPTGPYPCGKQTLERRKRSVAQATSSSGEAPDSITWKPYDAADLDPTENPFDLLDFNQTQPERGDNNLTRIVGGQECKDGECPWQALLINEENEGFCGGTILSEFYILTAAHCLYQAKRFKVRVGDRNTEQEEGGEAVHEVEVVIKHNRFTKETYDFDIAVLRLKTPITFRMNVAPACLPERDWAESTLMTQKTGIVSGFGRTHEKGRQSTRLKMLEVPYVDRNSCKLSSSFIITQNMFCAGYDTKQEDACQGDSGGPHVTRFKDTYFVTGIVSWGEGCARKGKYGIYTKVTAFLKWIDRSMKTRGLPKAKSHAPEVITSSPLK
Chain of Factor X (FX), P00742 (P00742 whole entry, looked up): as above

| Protein | kcat (Factor X, P00742) | % of WT kcat/KM (Factor X (FX), P00742) | KM (Factor X (FX), P00742) | kcat/KM for FX activation (Xase: FVIIIa, PC/PS vesicles, Ca2+) (Factor X (FX), P00742) | KM (Factor X, P00742) | kcat (s^-1) of FX activation by FIXa variant in the Xase complex (FVIIIa, PC/PS vesicles, Ca2+), fluorogenic FXa read-out (Factor X (FX), P00742) | proteolytic cleavage and activation of purified factor X (Factor X (FX), P00742) |
| --- | --- | --- | --- | --- | --- | --- | --- |
| FIXa-Y155F/K247N/N249S/R318Y/R338E/T343R/E410N (protein) chain 1: YNSGKLEEFVQGNLERECMEEKCSFEEAREVFENTERTTEFWKQYVDGDQCESNPCLNGGSCKDDINSYECWCPFGFEGKNCELDVTCNIKNGRCEQFCKNSADNKVVCSCTEGYRLAENQKSCEPAVPFPCGRVSVSQTSKLTR chain 2: VVGGEDAKPGQFPWQVVLNGKVDAFCGGSIVNEKWIVTAAHCVETGVKITVVAGEHNIEETEHTEQNRSVIRIIPHHNYNAAINKYNHDIALLELDEPLVLNSYVTPICIADKEYTNIFLKFGSGYVSGWGRVFHKGYSALVLQYLRVPLVDRATCLESTKFRIYNNMFCAGFHEGGRDSCQGDSGGPHVTEVEGTSFLTGIISWGEECAMKGKYGIYTKVSRYVNWIKNKTKLT | 7.7 s⁻¹ | 1091% | 0.0177 µM | 5e+08 M⁻¹ s⁻¹ |  |  |  |
| FIXa-Y155F/K247N/N249S/R318Y/R338E/T343R (protein) chain 1: YNSGKLEEFVQGNLERECMEEKCSFEEAREVFENTERTTEFWKQYVDGDQCESNPCLNGGSCKDDINSYECWCPFGFEGKNCELDVTCNIKNGRCEQFCKNSADNKVVCSCTEGYRLAENQKSCEPAVPFPCGRVSVSQTSKLTR chain 2: VVGGEDAKPGQFPWQVVLNGKVDAFCGGSIVNEKWIVTAAHCVETGVKITVVAGEHNIEETEHTEQNRSVIRIIPHHNYNAAINKYNHDIALLELDEPLVLNSYVTPICIADKEYTNIFLKFGSGYVSGWGRVFHKGYSALVLQYLRVPLVDRATCLESTKFRIYNNMFCAGFHEGGRDSCQGDSGGPHVTEVEGTSFLTGIISWGEECAMKGKYGIYTKVSRYVNWIKEKTKLT |  | 772% |  | 3.6e+08 M⁻¹ s⁻¹ | 0.0276 µM | 8.5 s⁻¹ |  |
| FIXa-Y155F/R318Y/T343R/R403E (protein) chain 1: YNSGKLEEFVQGNLERECMEEKCSFEEAREVFENTERTTEFWKQYVDGDQCESNPCLNGGSCKDDINSYECWCPFGFEGKNCELDVTCNIKNGRCEQFCKNSADNKVVCSCTEGYRLAENQKSCEPAVPFPCGRVSVSQTSKLTR chain 2: VVGGEDAKPGQFPWQVVLNGKVDAFCGGSIVNEKWIVTAAHCVETGVKITVVAGEHNIEETEHTEQKRNVIRIIPHHNYNAAINKYNHDIALLELDEPLVLNSYVTPICIADKEYTNIFLKFGSGYVSGWGRVFHKGYSALVLQYLRVPLVDRATCLRSTKFRIYNNMFCAGFHEGGRDSCQGDSGGPHVTEVEGTSFLTGIISWGEECAMKGKYGIYTKVSEYVNWIKEKTKLT |  | 154% |  | 7.1e+07 M⁻¹ s⁻¹ | 0.0727 µM | 5 s⁻¹ |  |
| FIXa-K247N/N249S/R318Y/R338E/T343R (protein) chain 1: YNSGKLEEFVQGNLERECMEEKCSFEEAREVFENTERTTEFWKQYVDGDQCESNPCLNGGSCKDDINSYECWCPFGFEGKNCELDVTCNIKNGRCEQFCKNSADNKVVCSCTEGYRLAENQKSCEPAVPFPCGRVSVSQTSKLTR chain 2: VVGGEDAKPGQFPWQVVLNGKVDAFCGGSIVNEKWIVTAAHCVETGVKITVVAGEHNIEETEHTEQNRSVIRIIPHHNYNAAINKYNHDIALLELDEPLVLNSYVTPICIADKEYTNIFLKFGSGYVSGWGRVFHKGYSALVLQYLRVPLVDRATCLESTKFRIYNNMFCAGFHEGGRDSCQGDSGGPHVTEVEGTSFLTGIISWGEECAMKGKYGIYTKVSRYVNWIKEKTKLT |  | 840% |  | 3.9e+08 M⁻¹ s⁻¹ | 0.0244 µM | 8 s⁻¹ |  |
| FIXa-R318Y/R338E/T343R (protein) chain 1: YNSGKLEEFVQGNLERECMEEKCSFEEAREVFENTERTTEFWKQYVDGDQCESNPCLNGGSCKDDINSYECWCPFGFEGKNCELDVTCNIKNGRCEQFCKNSADNKVVCSCTEGYRLAENQKSCEPAVPFPCGRVSVSQTSKLTR chain 2: VVGGEDAKPGQFPWQVVLNGKVDAFCGGSIVNEKWIVTAAHCVETGVKITVVAGEHNIEETEHTEQKRNVIRIIPHHNYNAAINKYNHDIALLELDEPLVLNSYVTPICIADKEYTNIFLKFGSGYVSGWGRVFHKGYSALVLQYLRVPLVDRATCLESTKFRIYNNMFCAGFHEGGRDSCQGDSGGPHVTEVEGTSFLTGIISWGEECAMKGKYGIYTKVSRYVNWIKEKTKLT |  | 324% |  | 1.5e+08 M⁻¹ s⁻¹ | 0.03 µM | 4.5 s⁻¹ | catalyzes the proteolytic cleavage and activation of purified factor X to the same extent in the presence of (1) poly-L-lysine phospholipid/calcium, and (3) factor VIIIa/phospholipid/calcium |
| FIXa-K247N/N249S/T343R/R403E/E410N (protein) chain 1: YNSGKLEEFVQGNLERECMEEKCSFEEAREVFENTERTTEFWKQYVDGDQCESNPCLNGGSCKDDINSYECWCPFGFEGKNCELDVTCNIKNGRCEQFCKNSADNKVVCSCTEGYRLAENQKSCEPAVPFPCGRVSVSQTSKLTR chain 2: VVGGEDAKPGQFPWQVVLNGKVDAFCGGSIVNEKWIVTAAHCVETGVKITVVAGEHNIEETEHTEQNRSVIRIIPHHNYNAAINKYNHDIALLELDEPLVLNSYVTPICIADKEYTNIFLKFGSGYVSGWGRVFHKGRSALVLQYLRVPLVDRATCLRSTKFRIYNNMFCAGFHEGGRDSCQGDSGGPHVTEVEGTSFLTGIISWGEECAMKGKYGIYTKVSEYVNWIKNKTKLT |  | 285% |  | 1.3e+08 M⁻¹ s⁻¹ | 0.06 µM | 8 s⁻¹ |  |
| FIXa-Y155F/R318Y/R338E/T343R (protein) chain 1: YNSGKLEEFVQGNLERECMEEKCSFEEAREVFENTERTTEFWKQYVDGDQCESNPCLNGGSCKDDINSYECWCPFGFEGKNCELDVTCNIKNGRCEQFCKNSADNKVVCSCTEGYRLAENQKSCEPAVPFPCGRVSVSQTSKLTR chain 2: VVGGEDAKPGQFPWQVVLNGKVDAFCGGSIVNEKWIVTAAHCVETGVKITVVAGEHNIEETEHTEQKRNVIRIIPHHNYNAAINKYNHDIALLELDEPLVLNSYVTPICIADKEYTNIFLKFGSGYVSGWGRVFHKGYSALVLQYLRVPLVDRATCLESTKFRIYNNMFCAGFHEGGRDSCQGDSGGPHVTEVEGTSFLTGIISWGEECAMKGKYGIYTKVSRYVNWIKEKTKLT |  | 771% |  | 3.6e+08 M⁻¹ s⁻¹ | 0.0242 µM | 7.9 s⁻¹ |  |
| FIXa-Y155F/T343R/R403E/E410N (protein) chain 1: YNSGKLEEFVQGNLERECMEEKCSFEEAREVFENTERTTEFWKQYVDGDQCESNPCLNGGSCKDDINSYECWCPFGFEGKNCELDVTCNIKNGRCEQFCKNSADNKVVCSCTEGYRLAENQKSCEPAVPFPCGRVSVSQTSKLTR chain 2: VVGGEDAKPGQFPWQVVLNGKVDAFCGGSIVNEKWIVTAAHCVETGVKITVVAGEHNIEETEHTEQKRNVIRIIPHHNYNAAINKYNHDIALLELDEPLVLNSYVTPICIADKEYTNIFLKFGSGYVSGWGRVFHKGRSALVLQYLRVPLVDRATCLRSTKFRIYNNMFCAGFHEGGRDSCQGDSGGPHVTEVEGTSFLTGIISWGEECAMKGKYGIYTKVSEYVNWIKNKTKLT |  | 321% |  | 1.5e+08 M⁻¹ s⁻¹ | 0.0446 µM | 6.6 s⁻¹ |  |
